Measured values from PMC3839853 (FEBS Open Bio, 2013).

Molecular target: the molecule itself
Assay: crystal structure

B1: Recombinant wild-type Phanerochaete chrysosporium pyranose 2-oxidase (PcP2O_(RECWT)), full-length residues 1-621 with N-terminal T7-epitope tag and C-terminal … (enzyme, UniProt Q6QWR1 10-621, looked up)
chain: ADEPYDVFIAGSGPIGATFAKLCVDANLRVCMVEIGAADSFTSKPMKGDPNAPRSVQFGPGQVPIPGYHKKNEIEYQKDIDRFVNVIKGALSTCSIPTSNNHIATLDPSVVSNSLDKPFISLGKNPAQNPFVNLGAEAVTRGVGGMSTHWTCATPEFFAPADFNAPHRERPKLSTDAAEDARIWKDLYAQAKEIIGTSTTEFDHSIRHNLVLRKYNDIFQKENVIREFSPLPLACHRLTDPDYVEWHATDRILEELFTDPVKRGRFTLLTNHRCTKLVFKHYRPGEENEVDYALVEDLLPHMQNPGNPASVKKIYARSYVVACGAVATAQVLANSHIPPDDVVIPFPGGEKGSGGGERDATIPTPLMPMLGKYITEQPMTFCQVVLDSSLMEVVRNPPWPGLDWWKEKVARHVEAFPNDPIPIPFRDPEPQVTIKFTEEHPWHVQIHRDAFSYGAVAENMDTRVIVDYRFFGYTEPQEANELVFQQHYRDAYDMPQPTFKFTMSQDDRARARRMMDDMCNIALKIGGYLPGSEPQFMTPGLALHLAGTTRCGLDTQKTVGNTHCKVHNFNNLYVGGNGVIETGFAANPTLTSICYAIRASNDIIAKFGRHRG
stoichiometry N: 4
